Measured values reported in patent publication US9133271 (AbbVie / Abbott, dated 2015).
Changes are numbered by the printed parent chain.

T1: human DLL3 on cells (h293-hDLL3 cells; endogenous DLL3 on NTX tumor cells) (human, UniProt Q9NYJ7 27-618)
T1 sequence: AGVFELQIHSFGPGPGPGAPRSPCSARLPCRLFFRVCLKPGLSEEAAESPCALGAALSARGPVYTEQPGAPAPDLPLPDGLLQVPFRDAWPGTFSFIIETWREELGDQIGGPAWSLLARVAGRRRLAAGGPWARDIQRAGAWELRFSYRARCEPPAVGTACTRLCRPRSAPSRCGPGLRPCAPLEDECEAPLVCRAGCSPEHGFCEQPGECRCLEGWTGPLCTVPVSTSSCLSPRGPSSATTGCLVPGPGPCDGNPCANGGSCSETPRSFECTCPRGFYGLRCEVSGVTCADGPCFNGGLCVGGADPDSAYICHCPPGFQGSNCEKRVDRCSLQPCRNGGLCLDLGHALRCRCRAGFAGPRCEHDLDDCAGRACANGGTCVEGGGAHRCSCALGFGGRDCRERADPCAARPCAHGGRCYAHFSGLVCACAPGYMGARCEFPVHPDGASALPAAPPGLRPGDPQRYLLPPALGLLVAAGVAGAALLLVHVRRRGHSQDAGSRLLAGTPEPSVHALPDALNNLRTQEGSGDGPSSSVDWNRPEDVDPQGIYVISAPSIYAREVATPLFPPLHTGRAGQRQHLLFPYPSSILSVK

T2: murine DLL3 on 293 cells (h293-mDLL3) (murine, UniProt O88516 33-584)
T2 sequence: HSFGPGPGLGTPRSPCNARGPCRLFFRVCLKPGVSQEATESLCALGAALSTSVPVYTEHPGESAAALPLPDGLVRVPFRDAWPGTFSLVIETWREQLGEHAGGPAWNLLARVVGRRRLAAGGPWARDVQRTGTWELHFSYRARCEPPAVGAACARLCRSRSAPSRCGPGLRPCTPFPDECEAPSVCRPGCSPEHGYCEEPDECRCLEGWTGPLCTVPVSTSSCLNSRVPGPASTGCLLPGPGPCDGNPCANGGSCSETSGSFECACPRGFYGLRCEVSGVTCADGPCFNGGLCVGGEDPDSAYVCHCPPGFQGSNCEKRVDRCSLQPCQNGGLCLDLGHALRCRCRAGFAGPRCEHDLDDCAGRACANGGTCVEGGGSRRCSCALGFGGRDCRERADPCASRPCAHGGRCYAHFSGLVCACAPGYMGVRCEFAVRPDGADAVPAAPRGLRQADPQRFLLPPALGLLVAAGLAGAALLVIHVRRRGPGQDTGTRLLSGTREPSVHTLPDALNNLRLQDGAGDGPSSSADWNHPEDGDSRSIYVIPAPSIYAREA

B1: SC16.34 (antibody, V domains shown)
VH: QIQLVQSGPELKRPGETVKISCKASGYTFTNYGMNWVKQAPGKGLKWMGWINTYTGDPTYADDFKGRFAFSLETSASTAYLQINNLKNEDTATYFCARIGGNSPSDYWGQGTSLTVSS
VL: SIVMTQTPKFLLVSAGDRVTITCKASQSVSNDVAWYQQKPGQSPKLLIYYASNRYSGVPDRFTGSGYGTDFTFTISTVQAEDLAVYFCQQDYSSPWTFGGGTKLEIK
B2: SC16.56 (antibody, V domains shown)
VH: B1 VH with R13K, G49A, D57E, Y80S, N84I, G101D, N102S, S113T
VL: B1 VL with A34V, S56T, T63A, T72S, S93T, K107R
B3: SC16.67 (antibody, V domains shown)
VH: EVQLVETGGGLVQPKGSLKLSCAVSAFTFTTYAMNWVRQAPGKGLEWVARIRNKSNNYATYYADSVKDRFTISRDDSQSMLYLQMNNLKIEDTAMYYCVFYYDYVYWGQGTLVTVSA
VL: QAVVTQESALTTSPGETVTLTCRSSTGAVTTSNYANWIQEKPDHLFTGLIGGTNNRAPGVPARFSGSLIGDKAALTITGAQTEDEAIYFCGLWYSNHLVFGGGTKLTVL
notes: murine anti-DLL3 mAb
B4: hSC16.25 (antibody, V domains shown)
VL: EIVLTQSPDFQSVTPKEKVTITCSASSSVSYMHWYQQKPDQSPKLLIKDSSKLASGVPSRFSGSGSGTDFTLTINSLEAEDAATYYCQQWSSNPLTFGQGTKLEIK
V domain: QITLKESGPTLVKPTQTLTLTCTFSGFSLSTSGMGVGWIRQPPGKALEWLTDIWWDDNKYYNPSLKSRLTITKDTSKNQVVLTMTNMDPVDTATYYCARRVNYYYDPYYAMDYWGQGTTLVTVS
notes: CDR-grafted humanized antibody; also called humanized SC16.25
B5: SC16.15 (antibody, V domains shown)
VH: QVQLQQSGAELAKPGASVKMSCKASGYTFTRYWIHWIKQRPGQGLEWIGYINPTTVYTEFNQNFKDKATLTADKSSTTASMQLSSLTSEDSAVYYCARGGSNFFDYWGQGTTLTVSS
VL: DIQMTQSPASLAASVGETVAITCRASENIYYNLAWYQQKQGKSPQLLIYTANSLEDGVPSRFSGSGSGTQYSLKINSMQPEDSATYFCKQAYDVPPTFGGGTKLEIK
B6: SC16.65 (antibody, V domains shown)
VH: QVTLKESGPGILQPSQTLSLTCSFSGFSLSTSGMGVGWIRQPSGKGLEWLALIWWDDVKRYNPALKSRLTISKDASSSQVFLKIASVDTADTATYYCARIASYDYDVVYAMDYWGQGTSVSVSS
VL: QIVLTQSPALMSASPGEKVTMTCSVTSSVSYMYWYQQKPRSSPKPWIYLTSNLASGVPARFSGSGSGTSYSLTISSVEAEDAATYYCQQWRNNPFTFGSGTKVEIK
B7: SC16.13 (antibody, V domains shown)
VH: B6 VH with L52H, A75T, A101V, Y103F, Y105N, Y109S, S121T
VL: B6 VL with M11V, V25A, T26S, V77M, N92S, V103L
B8: SC16.10 (antibody, V domains shown)
VH: QVTLKESGPGILQSSQTLSLTCSFSGFSLSTSGMGVGWIRQPSGKGLEWLAHIWWDDVKRYNPVLKSRLTISKDTSSSQVFLKIASVDTADTATYYCARLVDDLYYFDYWGQGTTLTVSS
VL: QIVLTQSPAIMSASLGERVTMTCTASSSVSSSYLHWYQQKPGSSPKLWIYSTSNLASGVPTRFSGSGSGTSYSLTISSMEAEDAATYYCHQYHRSPFTFGSGTKLEIK
B9: SC16.4 (antibody, V domains shown)
VH: QIQLVQSGPELKKPGETVKISCKASGYTFTDYSMHWVKQAPGKGLKWMGWINTETGEPGYADDFKGRFAFSLETSASTAYLQINNLKNEDTATYFCARYDGYAMDYWGQGTSVTVSS
VL: DIQMTQTTSSLSASLGDRVTISCRASQDISNYLNWYQQKPDGTVKLLIYYTSRLHSGVPSRFSGSGSGTDYSLTISNLELEDIATYFCQQGDMLPWTFGGGTKLEIK
B10: SC16.39 (antibody, V domains shown)
VH: EVKLEESGGGLVQFGGSMKLSCAASGFTFSDAWMDWVRQSPEKGLEWVAEIRNKANNHATYYPESVKGRFTISRDDSKSRVYLQMNNLRAEDTGIYYCTGYSSFAYWGQGTLVTVSA
VL: B9 VL with I29V, S30I, G68R, L80P, F87Y, G91Y, D92S, M93E, L94R, W96Y
B11: SC16.8 (antibody, V domains shown)
VH: QAQLQQSGAELVRPGTSVKVSCKASGYAFTNYLIEWVKQRPGQGLEWIGVINPGTGGTNYNENFKGKATLTADKSSSTAYMQLSSLTSDDSAVYFCARSPYDYHEGAMDYWGQGTSVTVSS
VL: EIQMTQSPSSMSASLGDRITITCQATQDIVKNLNWYQQKPGKPPSFLIYYAIELAEGVPSRFSGSGSGSDYSLTISNLESEDFADYYCLQFYEFPFTFGAGTKLELK
B12: hSC16.13 (antibody, V domains shown)
VH: QITLKESGPTLVKPTQTLTLTCTFSGFSLSTSGMGVGWIRQPPGKALEWLAHIWWDDVKRYSPSLKSRLTITKDTSKNQVVLTMTNMDPVDTATYYCARIVSFDNDVVSAMDYWGQGTLVTVSS
VL: DIQMTQSPSSLSASVGDRVTITCSASSSVSYMYWYQQKPGKAPKLLIYLTSNLASGVPSRFSGSGSGTDFTLTISSLQPEDFATYYCQQWRSNPFTFGQGTKLEIKR
notes: CDR-grafted humanized antibody; also called humanized SC16.13
B13: SC16.25 (antibody, V domains shown)
VH: QVTLKESGPGILQPSQTLSLTCSFSGFSLSTSGMGVGWIRQPSGEGLEWLTDIWWDDNKYYNPSLKSRLTISKDTSSNQVFLNITSVDTADTATYYCARRVNYYYDPYYAMDYWGQGTSVTVSS
VL: QIVLTQSPAIMSASPGEKVTMTCSASSSVSYMHWYQQKSGTSPKRWIYDSSKLASGVPARFSGSGSGTSYSLTISSMEAEDAATYYCQQWSSNPLTFGAGTKLELK

Tests used:
[1] = target: T1, human DLL3 on cells (h293-hDLL3 cells; …); assay: cell-based or functional assay
[2] = target: T1, human DLL3 on cells (h293-hDLL3 cells; …); assay: cell-based or functional assay; remark: listed apart in the source
[3] = target: T2, murine DLL3 on 293 cells (h293-mDLL3); assay: flow cytometry on 293 cells over-expressing murine DLL3
Procedure: For the flow cytometry assays, 50 ×10^4 h293 cells transduced respectively with human, cynomolgus, rat or murine DLL3 were incubated for 30 minutes with 25-100 μL hybridoma supernatant. […] After 15 minutes of incubation, cells were washed twice with PBS/2% FCS and resuspended in PBS/2% FCS with DAPI and analyzed by flow cytometry using a FACSCanto IT as per the manufacturer's instructions.

[4] = target: T2, murine DLL3 on 293 cells (h293-mDLL3); assay: assay and form of the mouse antigen not given on the sheet; table of properties of humanized constructs

Binder | % Live Cells (in vitro), KDY66 cells, antibody plus anti-mouse IgG Fab-saporin [1] | other results
B1 | 12% | EC50 of killing of OV26 NTX tumor cells with anti-mouse IgG Fab-saporin [2]: 5.7 pM
B2 | 16% | –
B3 | 37% | binding result [3]: no binding
B4 | – | binding result [4]: no binding
B5 | 24% | EC50 of killing of OV26 NTX tumor cells with anti-mouse IgG Fab-saporin [2]: 0.14 pM
B6 | 13% | –
B7 | 31% | –
B8 | 18% | –
B9 | 49% | –
B10 | 98% | –
B11 | 82% | –
B12 | – | binding result [4]: no binding
B13 | 28% | –
